These results are taken from patent US20250388669A1 (published 2025).

For one experiment, the target named is PD-1 (binding assay) (UniProt Q15116 25-167, limits assumed). The experiment can be described thus: FCM or ELISA, graded.
Another experiment has as its target CD40 (UniProt P25942 21-193, limits assumed). Kind of experiment: FCM or ELISA, graded. On the technique in general: An ELISA detects its analyte on a solid surface through an enzyme-linked reagent.
The next experiment addresses T1, CD137 (human, UniProt Q07011 24-186).
T1 construct: Reporter assays used GS-H2-huCD137 cells expressing human CD137; also called 4-1BB/CD137; huCD137
Kind of experiment: CD137 binding by FCM or ELISA.

The target in the next experiment is T2, CD19 (human, UniProt P15391 20-556).
T2 sequence (looked up): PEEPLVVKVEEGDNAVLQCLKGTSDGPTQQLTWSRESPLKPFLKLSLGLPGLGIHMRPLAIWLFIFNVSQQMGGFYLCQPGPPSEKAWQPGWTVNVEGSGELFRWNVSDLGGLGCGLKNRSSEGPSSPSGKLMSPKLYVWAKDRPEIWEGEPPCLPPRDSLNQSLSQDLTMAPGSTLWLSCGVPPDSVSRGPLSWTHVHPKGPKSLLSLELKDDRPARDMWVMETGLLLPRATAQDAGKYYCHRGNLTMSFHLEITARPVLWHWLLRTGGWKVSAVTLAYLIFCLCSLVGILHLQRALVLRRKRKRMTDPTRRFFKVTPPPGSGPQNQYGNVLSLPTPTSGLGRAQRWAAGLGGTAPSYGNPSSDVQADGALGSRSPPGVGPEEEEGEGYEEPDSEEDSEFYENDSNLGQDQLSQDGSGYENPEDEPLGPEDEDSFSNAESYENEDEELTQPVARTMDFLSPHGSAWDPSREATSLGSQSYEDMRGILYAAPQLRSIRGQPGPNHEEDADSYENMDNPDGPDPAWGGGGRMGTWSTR
Kind of experiment: cell-based or functional assay.

Where a chain is given by its changes, count along the chain named.

Chain of PD-1 (binding assay) (Q15116 25-167 limits assumed): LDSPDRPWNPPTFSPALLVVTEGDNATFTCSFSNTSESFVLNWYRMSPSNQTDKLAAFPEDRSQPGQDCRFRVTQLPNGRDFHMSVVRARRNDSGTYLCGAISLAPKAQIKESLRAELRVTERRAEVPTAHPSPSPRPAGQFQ
Chain of CD40 (P25942 21-193 limits assumed): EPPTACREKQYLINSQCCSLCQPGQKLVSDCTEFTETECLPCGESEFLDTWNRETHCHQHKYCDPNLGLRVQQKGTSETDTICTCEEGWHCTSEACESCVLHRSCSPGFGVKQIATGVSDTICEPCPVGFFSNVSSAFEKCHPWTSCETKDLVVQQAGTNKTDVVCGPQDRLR

B1: Ly2409 (bispecific antibody)
heavy 1: QVTLKESGPALVKPTQTLTLTCTFSGFSLSTSGTCVSWIRQPPGKALEWLATICWEDSKGYNPSLKSRLTISKDTSKNQAVLTMTNMDPVDTATYYCARREDSGYFWFPYWGQGTLVTVSSASTKGPSVFPLAPSSKSTSGGTAALGCLVKDYFPEPVTVSWNSGALTSGVHTFPAVLQSSGLYSLSSVVTVPSSSLGTQTYICNVNHKPSNTKVDKKVEPKSCGGGGSGGGGSGGGGSGGGGSEVQLVESGGGLVQPGGSLRLSCAASGFTFTNYGLHWVRQAPGKGLEWVSSISPSGGVTYYRDSVKGRFTISRDNSKNTLYLQMNSLRAEDTAVYYCAKPFLGWGGANWIAHWGQGTLVTVSSGGGGSDKTHTCPPCPAPEAAGPSVFLFPPKPKDTLMISRTPEVTCVVVDVSHEDPEVKFNWYVDGVEVHNAKTKPREEQYNSTYRVVSVLTVLHQDWLNGKEYKCKVSNKALPAPIEKTISKAKGQPREPQVYTLPPSREEMTKNQVSLWCLVKGFYPSDIAVEWESNGQPENNYKTTPPVLDSDGSFFLYSKLTVDKSRWQQGNVFSCSVMHEALHNHYTQKSLSLSPG
heavy 2: QVTLKESGPALVKPTQTLTLTCTFSGFSLSTSGTCVSWIRQPPGKALEWLATICWEDSKGYNPSLKSRLTISKDTSKNQAVLTMTNMDPVDTATYYCARREDSGYFWFPYWGQGTLVTVSSASTKGPSVFPLAPSSKSTSGGTAALGCLVKDYFPEPVTVSWNSGALTSGVHTFPAVLQSSGLYSLSSVVTVPSSSLGTQTYICNVNHKPSNTKVDKKVEPKSCGGGGSGGGGSGGGGSGGGGSDIQMTQSPSSLSASVGDRVTITCLASEDISNDLAWYQQKPGKAPKLLIYFVDRLLDGVPSRFSGSGSGTDFTLTISSLQPEDFATYYCQQSYKYPPTFGQGTKLEIKGGGGSDKTHTCPPCPAPEAAGPSVFLFPPKPKDTLMISRTPEVTCVVVDVSHEDPEVKFNWYVDGVEVHNAKTKPREEQYNSTYRVVSVLTVLHQDWLNGKEYKCKVSNKALPAPIEKTISKAKGQPREPQVYTLPPSREEMTKNQVSLSCAVKGFYPSDIAVEWESNGQPENNYKTTPPVLDSDGSFFLVSKLTVDKSRWQQGNVFSCSVMHEALHNRFTQKSLSLSPG
light: NIQMTQSPSSLSASVGDRVTITCKAGQNVNNYLAWYQQKPGKAPKVLIFNANSLQTGVPSRFSGSGSGTDFTLTISSLQPEDFATYYCQQYNSWPTFGGGTKVEIKRTVAAPSVFIFPPSDEQLKSGTASVVCLLNNFYPREAKVQWKVDNALQSGNSQESVTEQDSKDSTYSLSSTLTLSKADYEKHKVYACEVTHQGLSSPVTKSFNRGEC
notes: PD-1 Fabs (Ly516) x central CD40 Fv (TM559)
Take B1: the binding result with PD-1 (binding assay) and with CD40 was “binds” in each case.

B2: Ly2415 (bispecific antibody, human IgG1, kappa)
heavy 1: QVTLKESGPALVKPTQTLTLTCTFSGFSLSTSGTCVSWIRQPPGKALEWLATICWEDSKGYNPSLKSRLTISKDTSKNQAVLTMTNMDPVDTATYYCARREDSGYFWFPYWGQGTLVTVSSASTKGPSVFPLAPSSKSTSGGTAALGCLVKDYFPEPVTVSWNSGALTSGVHTFPAVLQSSGLYSLSSVVTVPSSSLGTQTYICNVNHKPSNTKVDKKVEPKSCDKTHTCPPCPAPEAAGPSVFLFPPKPKDTLMISRTPEVTCVVVDVSHEDPEVKFNWYVDGVEVHNAKTKPREEQYNSTYRVVSVLTVLHQDWLNGKEYKCKVSNKALPAPIEKTISKAKGQPREPQVYTLPPSREEMTKNQVSLWCLVKGFYPSDIAVEWESNGQPENNYKTTPPVLDSDGSFFLYSKLTVDKSRWQQGNVFSCSVMHEALHNHYTQKSLSLSPGGGGGSGGGGSGGGGSGGGGSEVQLVESGGGLVQPGGSLRLSCAASGFTFTNYGLHWVRQAPGKGLEWVSSISPSGGVTYYRDSVKGRFTISRDNSKNTLYLQMNSLRAEDTAVYYCAKPFLGWGGANWIAHWGQGTLVTVSS
heavy 2: QVTLKESGPALVKPTQTLTLTCTFSGFSLSTSGTCVSWIRQPPGKALEWLATICWEDSKGYNPSLKSRLTISKDTSKNQAVLTMTNMDPVDTATYYCARREDSGYFWFPYWGQGTLVTVSSASTKGPSVFPLAPSSKSTSGGTAALGCLVKDYFPEPVTVSWNSGALTSGVHTFPAVLQSSGLYSLSSVVTVPSSSLGTQTYICNVNHKPSNTKVDKKVEPKSCDKTHTCPPCPAPEAAGPSVFLFPPKPKDTLMISRTPEVTCVVVDVSHEDPEVKFNWYVDGVEVHNAKTKPREEQYNSTYRVVSVLTVLHQDWLNGKEYKCKVSNKALPAPIEKTISKAKGQPREPQVYTLPPSREEMTKNQVSLSCAVKGFYPSDIAVEWESNGQPENNYKTTPPVLDSDGSFFLVSKLTVDKSRWQQGNVFSCSVMHEALHNRFTQKSLSLSPGGGGGSGGGGSGGGGSGGGGSDIQMTQSPSSLSASVGDRVTITCLASEDISNDLAWYQQKPGKAPKLLIYFVDRLLDGVPSRFSGSGSGTDFTLTISSLQPEDFATYYCQQSYKYPPTFGQGTKLEIK
light: B1 light
notes: PD-1 Fabs (Ly516) x terminal CD40 Fv (TM559)
For the molecule B2, the binding result in the experiment with PD-1 (binding assay) and in the experiment with CD40 was “binds” each time.

B3: Ly1966 (other)
chain 1: QVQLQQSGAELVRPGSSVKISCKASGYAFSSYWMNWVKQRPGQGLEWIGQIWPGDGDTNYNGKFKGKATLTADESSSTAYMQLSSLASEDSAVYFCARRETTTVGRYYYAMDYWGQGTTVTVSSASTKGPSVFPLAPSSKSTSGGTAALGCLVKDYFPEPVTVSWNSGALTSGVHTFPAVLQSSGLYSLSSVVTVPSSSLGTQTYICNVNHKPSNTKVDKKVEPKSCGGGGSGGGGSGGGGSGGGGSEVQLVESGGGLVQPGGSLRLSCAASGFTFSTYAMNWVRQAPGKGLEWVGRIRSKYNNYATYYADSVKGRFTISRDDSKNSLYLQMNSLKTEDTAVYYCVRHGNFGNSYVSWFAYWGQGTLVTVSSGGGGSDKTHTCPPCPAPEAAGPSVFLFPPKPKDTLMISRTPEVTCVVVDVSHEDPEVKFNWYVDGVEVHNAKTKPREEQYNSTYRVVSVLTVLHQDWLNGKEYKCKVSNKALPAPIEKTISKAKGQPREPQVYTLPPSREEMTKNQVSLWCLVKGFYPSDIAVEWESNGQPENNYKTTPPVLDSDGSFFLYSKLTVDKSRWQQGNVFSCSVMHEALHNHYTQKSLSLSPGGGGGSGGGGSGGGGSGGGGSQVQLVQSGAEVKKPGASVKVSCKASGYTFAGFEMHWVRQAPGQGLEWMGAIDPKTGGTDYNQKFKDRVTMTRDTSISTAYMELSRLRSDDTAVYYCARDLGYFDVWGQGTLVTVSS
chain 2: QVQLQQSGAELVRPGSSVKISCKASGYAFSSYWMNWVKQRPGQGLEWIGQIWPGDGDTNYNGKFKGKATLTADESSSTAYMQLSSLASEDSAVYFCARRETTTVGRYYYAMDYWGQGTTVTVSSASTKGPSVFPLAPSSKSTSGGTAALGCLVKDYFPEPVTVSWNSGALTSGVHTFPAVLQSSGLYSLSSVVTVPSSSLGTQTYICNVNHKPSNTKVDKKVEPKSCGGGGSGGGGSGGGGSGGGGSQAVVTQEPSLTVSPGGTVTLTCRSSTGAVTTSNYANWVQQKPGQAPRGLIGGTNKRAPWTPARFSGSLLGGKAALTITGAQAEDEADYYCALWYSNLWVFGGGTKLTVLGGGGSDKTHTCPPCPAPEAAGPSVFLFPPKPKDTLMISRTPEVTCVVVDVSHEDPEVKFNWYVDGVEVHNAKTKPREEQYNSTYRVVSVLTVLHQDWLNGKEYKCKVSNKALPAPIEKTISKAKGQPREPQVYTLPPSREEMTKNQVSLSCAVKGFYPSDIAVEWESNGQPENNYKTTPPVLDSDGSFFLVSKLTVDKSRWQQGNVFSCSVMHEALHNRFTQKSLSLSPGGGGGSGGGGSGGGGSGGGGSDIQMTQSPSSLSASVGDRVTITCRASQDIRSNLNWYQQKPGGAVKLLIYYTSRLHSGVPSRFSGSGSGTDYTLTISSLQPEDFATYFCQQSEKLPRTFGGGTKVEIR
light: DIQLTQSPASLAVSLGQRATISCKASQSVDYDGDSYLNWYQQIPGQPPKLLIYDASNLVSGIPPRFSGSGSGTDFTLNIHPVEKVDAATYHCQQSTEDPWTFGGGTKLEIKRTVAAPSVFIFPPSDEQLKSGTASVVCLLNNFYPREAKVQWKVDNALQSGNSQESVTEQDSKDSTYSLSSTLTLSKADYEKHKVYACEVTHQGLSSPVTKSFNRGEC
notes: Tri-specific CD19/CD3/CD137: two CD19 Fabs, central CD3 Fv, terminal CD137 Fv
With B3, in the experiment with CD137, the binding result was “binds”. Also, the “EC50 of cytotoxicity (LDH release), Raji cells with human PBMCs, 48 hours” value with CD19 is 10.8 pM.

B4: Ly1967 (other)
chain 1: B3 chain 1
chain 2: B3 chain 2 with R575H, F576Y
light: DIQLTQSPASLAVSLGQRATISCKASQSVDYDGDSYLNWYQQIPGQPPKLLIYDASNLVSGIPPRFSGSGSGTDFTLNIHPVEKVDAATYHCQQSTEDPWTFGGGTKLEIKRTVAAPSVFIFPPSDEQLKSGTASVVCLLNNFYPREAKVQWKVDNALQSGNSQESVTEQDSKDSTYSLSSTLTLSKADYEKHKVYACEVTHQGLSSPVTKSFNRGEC
As for B4, in the experiment with CD137, the binding result is listed as “binds”. The “EC50 of cytotoxicity (LDH release), Raji cells with human PBMCs, 48 hours” value with CD19 turned out to be 8.9 pM.
